Data taken from patent EP3075390A1 (Immunomedics Inc., dated 2016).

Assays:
[1] = target: IGF-1R and EGP-1 together on MCF-7, DU-145 or ME-180 cells; test: flow cytometry (FACScan) on MCF-7 cells; structural control construct
[2] = target: T1, recombinant human IGF-1R (rhIGF-1R) (human, UniProt P08069 31-935); test: labeled antibody on rhIGF-1R-coated beads; competitor: unlabeled 24-57
T1 construct: extracellular domain; also called immobilized recombinant human IGF-1R; IGF-1R-coated beads

[3] = target: T1, recombinant human IGF-1R (rhIGF-1R); test: labeled antibody on rhIGF-1R-coated beads; competitor: unlabeled MAB391
[4] = target: T1, recombinant human IGF-1R (rhIGF-1R); test: labeled antibody on rhIGF-1R-coated beads; competitor: unlabeled hR1
[5] = target: T1, recombinant human IGF-1R (rhIGF-1R); test: labeled antibody on rhIGF-1R-coated beads; competitor: unlabeled 3B7
[6] = target: T1, recombinant human IGF-1R (rhIGF-1R); test: labeled antibody on rhIGF-1R-coated beads; competitor: unlabeled 2C8
[7] = target: T1, recombinant human IGF-1R (rhIGF-1R); test: labeled antibody on rhIGF-1R-coated beads; competitor: unlabeled 24-60
[8] = target: T1, recombinant human IGF-1R (rhIGF-1R); test: labeled antibody on rhIGF-1R-coated beads; competitor: unlabeled cR1
[9] = target: T1, recombinant human IGF-1R (rhIGF-1R); test: labeled antibody on rhIGF-1R-coated beads; competitor: unlabeled 17-69
[10] = target: T1, recombinant human IGF-1R (rhIGF-1R); test: labeled antibody on rhIGF-1R-coated beads; competitor: unlabeled αIR-3
[11] = target: T1, recombinant human IGF-1R (rhIGF-1R); test: labeled antibody on rhIGF-1R-coated beads; competitor: unlabeled 24-31
[12] = target: T1, recombinant human IGF-1R (rhIGF-1R); test: labeled antibody on rhIGF-1R-coated beads; competitor: unlabeled 1-2
[13] = target: T1, recombinant human IGF-1R (rhIGF-1R); test: labeled antibody on rhIGF-1R-coated beads; competitor: unlabeled 1H7
[14] = target: T1, recombinant human IGF-1R (rhIGF-1R); test: labeled antibody on rhIGF-1R-coated beads; competitor: unlabeled R1
EGP-1 [15] = target: EGP-1 (UniProt P09758); test: flow cytometry (FACScan) on DU-145 cells
EGP-1, sequence (P09758 27-323): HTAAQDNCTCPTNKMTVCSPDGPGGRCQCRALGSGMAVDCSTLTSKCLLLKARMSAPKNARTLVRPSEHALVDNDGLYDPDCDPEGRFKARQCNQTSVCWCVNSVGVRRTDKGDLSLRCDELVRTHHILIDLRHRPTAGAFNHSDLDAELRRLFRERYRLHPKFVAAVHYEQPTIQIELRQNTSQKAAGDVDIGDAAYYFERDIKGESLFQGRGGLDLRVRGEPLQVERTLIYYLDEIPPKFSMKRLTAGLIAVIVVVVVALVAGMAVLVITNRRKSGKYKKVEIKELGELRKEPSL

EGP-1 [16] = target: EGP-1 (UniProt P09758); test: flow cytometry (FACScan) on ME-180 cells
EGP-1 [17] = target: EGP-1 (UniProt P09758); test: flow cytometry (FACScan) on MCF-7 cells
[18] = target: IGF-1R and EGP-1 together on MCF-7, DU-145 or ME-180 cells; test: flow cytometry (FACScan) on MCF-7 cells; control antibody
[19] = target: IGF-1R and EGP-1 together on MCF-7, DU-145 or ME-180 cells; test: flow cytometry (FACScan) on DU-145 cells; control antibody
[20] = target: IGF-1R and EGP-1 together on MCF-7, DU-145 or ME-180 cells; test: flow cytometry (FACScan) on ME-180 cells; control antibody
[21] = target: IGF-1R on human cancer cell lines (human) (UniProt P08069); test: 125I-IGF-1 binding to MCF-7L cells with antibody at 1000 ng/mL
IGF-1R on human cancer cell lines (human), sequence (P08069 31-1367): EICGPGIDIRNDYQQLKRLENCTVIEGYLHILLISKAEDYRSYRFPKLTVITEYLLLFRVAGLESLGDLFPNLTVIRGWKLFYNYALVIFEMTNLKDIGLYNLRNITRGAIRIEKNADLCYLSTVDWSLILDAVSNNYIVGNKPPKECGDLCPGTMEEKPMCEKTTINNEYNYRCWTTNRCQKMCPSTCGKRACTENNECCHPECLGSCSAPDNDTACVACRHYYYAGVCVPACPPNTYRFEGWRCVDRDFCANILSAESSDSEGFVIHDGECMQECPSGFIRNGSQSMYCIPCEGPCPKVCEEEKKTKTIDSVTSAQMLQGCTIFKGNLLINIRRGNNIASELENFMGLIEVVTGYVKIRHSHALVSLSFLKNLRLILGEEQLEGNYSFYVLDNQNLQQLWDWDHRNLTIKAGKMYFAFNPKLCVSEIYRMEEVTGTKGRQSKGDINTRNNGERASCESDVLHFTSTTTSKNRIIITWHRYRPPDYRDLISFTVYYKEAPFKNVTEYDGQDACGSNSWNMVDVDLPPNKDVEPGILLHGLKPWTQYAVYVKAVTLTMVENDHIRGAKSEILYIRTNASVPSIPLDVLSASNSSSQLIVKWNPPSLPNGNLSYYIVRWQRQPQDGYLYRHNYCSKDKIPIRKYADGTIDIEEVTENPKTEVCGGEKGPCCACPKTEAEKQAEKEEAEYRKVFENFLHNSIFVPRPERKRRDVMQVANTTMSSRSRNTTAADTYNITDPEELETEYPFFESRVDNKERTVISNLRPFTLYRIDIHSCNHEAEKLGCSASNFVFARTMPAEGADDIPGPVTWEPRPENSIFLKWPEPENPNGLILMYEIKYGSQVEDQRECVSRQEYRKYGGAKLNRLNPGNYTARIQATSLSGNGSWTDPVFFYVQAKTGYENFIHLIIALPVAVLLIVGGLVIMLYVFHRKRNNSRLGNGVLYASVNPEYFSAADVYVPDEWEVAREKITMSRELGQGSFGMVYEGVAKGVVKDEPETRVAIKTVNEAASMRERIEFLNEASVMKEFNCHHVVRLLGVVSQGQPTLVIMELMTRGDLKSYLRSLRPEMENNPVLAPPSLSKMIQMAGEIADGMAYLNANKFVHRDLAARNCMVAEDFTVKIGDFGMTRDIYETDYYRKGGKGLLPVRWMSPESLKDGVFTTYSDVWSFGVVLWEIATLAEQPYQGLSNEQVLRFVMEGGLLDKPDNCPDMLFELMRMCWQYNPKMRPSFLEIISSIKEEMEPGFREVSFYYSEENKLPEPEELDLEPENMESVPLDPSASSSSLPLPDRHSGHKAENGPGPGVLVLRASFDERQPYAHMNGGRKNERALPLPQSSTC

[22] = target: IGF-1R on human cancer cell lines (human) (UniProt P08069); test: 125I-IGF-1 binding to MCF-7L cells with antibody at 100 ng/mL
[23] = target: T1, recombinant human IGF-1R (rhIGF-1R); test: PE-tagged MAB391 on IGF-1R-coated beads with R1 at 100 µg/mL
[24] = target: T2, recombinant human insulin receptor (rhIR) (human, UniProt P06213-2 28-944, limits assumed); test: hybridoma screening, assay not described
T2 construct: also called recombinant human IR
T2 sequence (P06213 other isoform, or with tags, fused parts or gaps limits assumed): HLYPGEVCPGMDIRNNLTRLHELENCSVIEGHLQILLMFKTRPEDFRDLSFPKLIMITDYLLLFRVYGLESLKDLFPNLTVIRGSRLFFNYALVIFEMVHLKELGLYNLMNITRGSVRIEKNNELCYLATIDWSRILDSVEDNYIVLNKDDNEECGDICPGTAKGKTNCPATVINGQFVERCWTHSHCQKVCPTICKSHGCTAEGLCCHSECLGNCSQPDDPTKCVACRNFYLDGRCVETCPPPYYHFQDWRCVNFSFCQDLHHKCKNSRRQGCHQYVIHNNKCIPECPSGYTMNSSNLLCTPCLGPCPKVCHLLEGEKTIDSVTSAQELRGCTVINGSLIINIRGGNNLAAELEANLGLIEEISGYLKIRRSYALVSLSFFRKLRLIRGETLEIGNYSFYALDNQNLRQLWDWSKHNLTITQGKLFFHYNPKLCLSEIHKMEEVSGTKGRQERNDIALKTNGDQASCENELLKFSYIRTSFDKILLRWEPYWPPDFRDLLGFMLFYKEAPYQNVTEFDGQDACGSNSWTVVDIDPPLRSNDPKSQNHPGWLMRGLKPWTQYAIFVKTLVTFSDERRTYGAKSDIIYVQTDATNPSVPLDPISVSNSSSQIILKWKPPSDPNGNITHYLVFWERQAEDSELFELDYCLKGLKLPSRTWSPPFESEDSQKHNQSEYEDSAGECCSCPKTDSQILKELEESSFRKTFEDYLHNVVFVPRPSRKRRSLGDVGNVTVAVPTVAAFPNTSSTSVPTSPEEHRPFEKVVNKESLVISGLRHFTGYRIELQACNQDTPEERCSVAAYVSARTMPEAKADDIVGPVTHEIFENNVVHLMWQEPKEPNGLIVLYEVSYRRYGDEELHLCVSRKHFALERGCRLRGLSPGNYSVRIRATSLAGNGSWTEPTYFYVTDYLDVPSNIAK

[25] = target: T2, recombinant human insulin receptor …; test: ELISA on immobilized rhIR
[26] = target: T1, recombinant human IGF-1R (rhIGF-1R); test: ELISA on immobilized rhIGF-1R (FIG. 3)
[27] = target: IGF-1R on human cancer cell lines (human) (UniProt P08069); test: flow cytometry (FACScan) on DU-145 cells
[28] = target: IGF-1R on human cancer cell lines (human) (UniProt P08069); test: flow cytometry (FACScan) on ME-180 cells
[29] = target: IGF-1R on human cancer cell lines (human) (UniProt P08069); test: flow cytometry (FACScan) on MCF-7 cells

T1 sequence (P08069 31-935): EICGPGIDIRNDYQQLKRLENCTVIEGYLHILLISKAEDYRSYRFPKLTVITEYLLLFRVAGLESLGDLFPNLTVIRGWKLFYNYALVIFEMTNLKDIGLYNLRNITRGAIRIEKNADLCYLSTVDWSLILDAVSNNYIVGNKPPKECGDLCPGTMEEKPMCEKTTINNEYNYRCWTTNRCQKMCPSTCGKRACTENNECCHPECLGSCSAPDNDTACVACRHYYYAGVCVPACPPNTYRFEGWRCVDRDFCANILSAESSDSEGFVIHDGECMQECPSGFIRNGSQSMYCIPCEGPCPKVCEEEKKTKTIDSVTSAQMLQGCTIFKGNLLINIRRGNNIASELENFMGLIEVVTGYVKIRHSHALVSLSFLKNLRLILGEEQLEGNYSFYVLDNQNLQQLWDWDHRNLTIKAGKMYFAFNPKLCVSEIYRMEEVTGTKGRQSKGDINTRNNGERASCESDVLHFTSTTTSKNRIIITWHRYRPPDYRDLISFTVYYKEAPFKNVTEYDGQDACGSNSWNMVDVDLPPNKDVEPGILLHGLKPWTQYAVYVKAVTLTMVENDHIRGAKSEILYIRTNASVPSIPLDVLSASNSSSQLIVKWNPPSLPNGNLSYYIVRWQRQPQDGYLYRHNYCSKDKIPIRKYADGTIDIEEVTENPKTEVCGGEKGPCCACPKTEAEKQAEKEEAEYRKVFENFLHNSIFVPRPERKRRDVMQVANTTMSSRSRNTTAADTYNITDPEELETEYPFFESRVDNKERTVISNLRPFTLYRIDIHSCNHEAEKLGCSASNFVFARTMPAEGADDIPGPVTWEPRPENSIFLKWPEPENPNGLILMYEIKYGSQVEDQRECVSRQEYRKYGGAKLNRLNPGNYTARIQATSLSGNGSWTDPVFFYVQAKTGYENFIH

% binding of labeled antibody [2]	% binding of labeled antibody [3]	% binding of labeled antibody [4]	% binding of labeled antibody [5]	% binding of labeled antibody [6]	% binding of labeled antibody [7]	% binding of labeled antibody [8]	% binding of labeled antibody [9]	% binding of labeled antibody [10]	% binding of labeled antibody [11]	% binding of labeled antibody [12]	% binding of labeled antibody [13]	% binding of labeled antibody [14]	Molecule	also measured
													22-20 (DNL construct of hLL2 IgG-AD2 and hA20 Fab-DDD2) (bispecific antibody)	% Positive [1]: 3.1%; MFI [1]: 2.11
88%	0%	0%	79%	88%	0%	0%	82%	21%	18%	100%	100%	0%	anti-IGF-1R antibody 24-60	
87%	0%	107%	76%	97%	0%	97%	89%	0%	52%	95%	115%	86%	anti-IGF-1R antibody αIR-3	
													Hex-hRS7 (hexavalent DNL construct of hRS7 IgG-AD2 and hRS7 Fab-DDD2)	% Positive (EGP-1 [15]): 93.7%; MFI (EGP-1 [15]): 17; % Positive (EGP-1 [16]): 100%; MFI (EGP-1 [16]): 59.6; % Positive (EGP-1 [17]): 99.9%; MFI (EGP-1 [17]): 35.7
													human IgG (control) (antibody)	% Positive [18]: 2.34%; MFI [18]: 1.84; % Positive [19]: 1.44%; MFI [19]: 2.21; % Positive [20]: 1.37%; MFI [20]: 1.8
	0%											40%	mouse anti-IGF-1R monoclonal antibody MAB391	% binding of 125I-IGF-1 [21]: 38%; % binding of 125I-IGF-1 [22]: 54%
		0%	117%		43%	0%		143%			150%	0%	murine anti-IGF-1R antibody R1 (antibody, V domains shown, also called ML04R1; murine R1) VH: EVKLVESGGGLVQPGGSLKLSCATSGFTFSDYYMYWVRQTPEKRLEWVAYITNYGGSTYYPDTVKGRFTISRDNAKNTLYLQMSRLRSEDTAMYFCARQSNYDYDGWFAYWGQGTTVTVSS VL: DIVMTQSHKFMSTSVGDRVSITCKASQEVGTAVAWYQQKPGQSPKLLIYWASTRHTGVPDRFTGSGSGTDFTLTISNVQSEDLADYFCQQYSNYPLTFGAGAKLELKR	% binding of 125I-IGF-1 [21]: 58%; % inhibition of the binding of PE-tagged MAB391 [23]: 50 to 60%; binding result [24]: no binding; % binding of 125I-IGF-1 [22]: 71%
													chimeric R1 antibody (cR1) (antibody, V domains shown, Mouse-human chimeric mAb of R1, R1 VH and VK in the pdHL2 vector with human constant regions; also called clones 709.2D2 and 710.2G2) VH: EVKLVESGGGLVQPGGSLKLSCATSGFTFSDYYMYWVRQTPEKRLEWVAYITNYGGSTYYPDTVKGRFTISRDNAKNTLYLQMSRLRSEDTAMYFCARQSNYDYDGWFAYWGQGTTVTVSS VL: DIVMTQSHKFMSTSVGDRVSITCKASQEVGTAVAWYQQKPGQSPKLLIYWASTRHTGVPDRFTGSGSGTDFTLTISNVQSEDLADYFCQQYSNYPLTFGAGAKLELKR	binding result [25]: no binding; Kd [26]: ~0.1 nM
100%	121%	0%	100%	100%	71%	0%	100%	136%	100%	100%	131%	0%	humanized R1 antibody (hR1) (antibody, V domains shown) VH: QVQLQESGGGVVQPGRSLRLSCSASGFTFSDYYMYWVRQAPGKGLEWVAYITNYGGSTYYPDTVKGRFTISRDNAKNTLFLQMDSLRPEDTGVYFCARQSNYDYDGWFAYWGQGTPVTVSS VL: DIQLTQSPSSLSASVGDRVTITCKASQEVGTAVAWYQQKPGKAPKLLIYWASTRHTGVPSRFSGSGSGTDFTFTISSLQPEDIATYFCQQYSNYPLTFGQGTKVEIKR	% Positive [27]: 30.4%; MFI [27]: 5.33; % Positive [28]: 10.7%; MFI [28]: 3.65; % Positive [29]: 89.2%; MFI [29]: 9.93
